Source: patent EP4803546A1 (Beijing Wisdomab Biotechnology Co., Ltd, dated 2026)
Like-named read-outs stand apart in the source and are kept apart here.

B1: humanized bispecific antibody 2N83G3-h5×IMCR (bispecific antibody)
chain 1: EVQLVESGGGLVKPGGSLRLSCAASGASLDIYVMGWYRQAPGKGLELVAVITGSGNTNYADSVKGRFTISRDDSKNTLYLQMNSLKTEDTAVYYCAGGRPSRYYRDSGTWADFWGQGTTVTVSSGGGGSGGGGSGGGGSEVQLVESGGGLVKPGGSLRLSCAASGASLDIYVMGWYRQAPGKGLELVAVITGSGNTNYADSVKGRFTISRDDSKNTLYLQMNSLKTEDTAVYYCAGGRPSRYYRDSGTWADFWGQGTTVTVSSASERKSSVECPPCPAPEFEGGPSVFLFPPKPKDTLMISRTPEVTCVVVDVSQEDPEVQFNWYVDGVEVHNAKTKPREEQYNSTYRVVSVLTVLHQDWLNGKEYKCKVSNKALPASIEKTISKAKGQPREPQVCTLPPSQEEMTKNQVSLSCAVKGFYPSDIAVEWESNGQPENNYKTTPPVLDSDGSFFLVSKLTVDKSRWQEGNVFSCSVMHEALHNHYTQKSLSLSPGK
chain 2: not shown
notes: Arm 1 is 2N83G3-h5-G1m3-FcH1n1 (two tandem N83G3-h5 VHH on the hole Fc); Arm 2 is IMCR-scFv-G1m3-FcKn1 (anti-CD3 scFv on the knob Fc); also called 2N83G3-h5×IMCR BsAb
B2: N83G3-h5 humanized single-domain antibody (Fc fusion)
VHH: EVQLVESGGGLVKPGGSLRLSCAASGASLDIYVMGWYRQAPGKGLELVAVITGSGNTNYADSVKGRFTISRDDSKNTLYLQMNSLKTEDTAVYYCAGGRPSRYYRDSGTWADFWGQGTTVTVSS
notes: also called humanized mutant N83G3-h5; humanized molecule N83G3-h5
B3: bispecific antibody 2N83G3×IMCR (bispecific antibody)
chain 1: QVQLVESGGGLVQAGGSLRLSCAASGASLDIYVMGWYRQATGKERDLVAVITGSGNTNYADSVKGRFTISRDDAKNTLYLQMSSLKPEDTAVYYCAGGRPSRYYRDSGTWADFWGQGTQVTVSSGGGGSGGGGSGGGGSQVQLVESGGGLVQAGGSLRLSCAASGASLDIYVMGWYRQATGKERDLVAVITGSGNTNYADSVKGRFTISRDDAKNTLYLQMSSLKPEDTAVYYCAGGRPSRYYRDSGTWADFWGQGTQVTVSSASERKSSVECPPCPAPEFEGGPSVFLFPPKPKDTLMISRTPEVTCVVVDVSQEDPEVQFNWYVDGVEVHNAKTKPREEQYNSTYRVVSVLTVLHQDWLNGKEYKCKVSNKALPASIEKTISKAKGQPREPQVCTLPPSQEEMTKNQVSLSCAVKGFYPSDIAVEWESNGQPENNYKTTPPVLDSDGSFFLVSKLTVDKSRWQEGNVFSCSVMHEALHNHYTQKSLSLSPGK
chain 2: not shown
notes: Arm 1 is 2N83G3-G1m3-FcH1n1 (two tandem N83G3 VHH on the hole Fc); Arm 2 is IMCR-ScFv-G1m3-FcKn1 (anti-CD3 scFv on the knob Fc); also called 2N83G3×IMCR BsAb

Tests used:
[1] = biological target: HLA-A24 complex with Similar Peptide Segment 8 (…, XCR1) on cells (human; human (homo sapiens)); assay: cell-based or functional assay
[2] = biological target: HLA-A24 complex with Similar Peptide Segment 11 (…, KIFBP) on cells (human; human (homo sapiens)); assay: cell-based or functional assay
[3] = biological target: HLA-A24 complex with Similar Peptide Segment 12 (…, CPVL) on cells (human; human (homo sapiens)); assay: cell-based or functional assay
[4] = biological target: HLA-A24 complex with Similar Peptide Segment 16 (…, PLD1) on cells (human; human (homo sapiens)); assay: cell-based or functional assay
[5] = biological target: HLA-A24/PRAME complex: PRAME301-309 (…) presented by HLA-A24 on cells (human; human (homo sapiens)); assay: cell-based or functional assay
[6] = biological target: T1, MIP-P3-His (disulfide trap single-chain trimer of PRAME antigen peptide … and HLA-A24, His tag) (human); assay: SPR, Biacore T200, as in Section 2.3; MIP-P3-His as analyte
T1 construct: Single polypeptide; His tag added at the C-terminus; also called dtSCT; MIP-P3-His fusion protein

[7] = biological target: T1, MIP-P3-His (disulfide trap single-chain …); assay: as above; remark: listed apart in the source
[8] = biological target: T2, CD3 (recombinant, as analyte of Table 4) (human (homo sapiens), UniProt P07766 23-126; P04234 22-105); assay: SPR, Biacore T200, as in Section 2.3; CD3 as analyte
T2 construct: That the analyte was a CD3E/CD3D pair is an inference; also called hCD3E; hCD3D
T2 sequence (P07766 23-126, chain 1 of 2): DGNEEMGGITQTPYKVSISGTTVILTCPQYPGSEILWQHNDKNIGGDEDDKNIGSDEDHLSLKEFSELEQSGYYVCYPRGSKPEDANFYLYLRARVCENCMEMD
T2 sequence (P04234 22-105, chain 2 of 2): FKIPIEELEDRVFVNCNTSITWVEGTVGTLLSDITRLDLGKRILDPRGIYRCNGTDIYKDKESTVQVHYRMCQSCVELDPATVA

Binder	EC50 Value (nM) mediating the Activation of Jurkat-Dual Cells [1] [nM]	EC50 Value (nM) mediating the Activation of Jurkat-Dual Cells [2] [nM]	EC50 Value (nM) mediating the Activation of Jurkat-Dual Cells [3] [nM]	EC50 Value (nM) mediating the Activation of Jurkat-Dual Cells [4] [nM]	EC50 Value (nM) mediating the Activation of Jurkat-Dual Cells [5] [nM]	Kd [6] [nM]	koff [6] [s⁻¹]	kon [6] [M⁻¹ s⁻¹]	Kd [7] [nM]	koff [7] [s⁻¹]	kon [7] [M⁻¹ s⁻¹]	Kd [8] [nM]	koff [8] [s⁻¹]	kon [8] [M⁻¹ s⁻¹]
B1	3.71	1.02	5.32	1.07	0.011	0.065	8.06e-05	1.24e+06						
B2									0.0747	5.52e-05	737000			
B3						0.0544	7.65e-05	1.41e+06				4.57	0.000245	53600
